Source: publication PMC5725882 (Cell Discovery, 2017)

Key:
Settings in all cases: both partners purified
[1] = target: T1, full-length wild-type p97 (^FLp97^wt) (UniProt P55072 1-806); assay: pull-down; GST-VIMP variants on glutathione resin, p97 proteins in solution; 20 mM Tris pH 8.0, 150 mM NaCl, 3 mM MgCl2, 10% glycerol, 0.1% Triton X-100, 4 C, 2 mM ATPγS or AMP-PNP (Figures 3b and 4e: AMP-PNP); SDS-PAGE
T1 construct: p97 (valosin-containing protein, VCP), full-length, residues 1-806; also called VCP; valosin-containing protein; source: purified; expression and purification as described previously [13, 42, 44]

[2] = target: T2, full-length p97 A232E (^FLp97^mt) (UniProt P55072 1-806, A232E); assay: as above
T2 construct: p97 (VCP), full-length, residues 1-806, MSP1-associated mutation A232E; also called FLp97 A232E; pathogenic p97 variant A232E; source: purified; expression and purification as described previously [13, 42, 44]

[3] = target: T3, N-D1 fragment of p97 L198W, long form (^ND1p97^mt, residues 1-480) (UniProt P55072 1-480, L198W); assay: as above
T3 construct: p97 (VCP), N-D1 fragment, residues 1-480, pathogenic mutation L198W; also called ND1p97 L198W (1-480); source: purified; expression and purification as described previously [13, 42, 44]

[4] = target: T4, full-length p97 R155H (^FLp97^mt) (UniProt P55072 1-806, R155H); assay: as above
T4 construct: p97 (VCP), full-length, residues 1-806, MSP1-associated mutation R155H; also called FLp97 R155H; pathogenic p97 variant R155H; source: purified; expression and purification as described previously [13, 42, 44]

[5] = target: T5, N-D1 fragment of p97 A232E, long form (^ND1p97^mt, residues 1-480) (UniProt P55072 1-480, A232E); assay: as above
T5 construct: p97 (VCP), N-D1 fragment, residues 1-480, pathogenic mutation A232E; also called ND1p97 A232E (1-480); source: purified; expression and purification as described previously [13, 42, 44]

[6] = target: T6, full-length p97 L198W (^FLp97^mt) (UniProt P55072 1-806, L198W); assay: as above
T6 construct: p97 (VCP), full-length, residues 1-806, MSP1-associated mutation L198W; also called FLp97 L198W; pathogenic p97 variant L198W; source: purified; expression and purification as described previously [13, 42, 44]

[7] = target: T7, N-D1 fragment of wild-type p97, long form (^ND1p97^wt, residues 1-480) (UniProt P55072 1-480); assay: as above
T7 construct: p97 (VCP), N-D1 fragment, residues 1-480 (the form used in pull-down and ITC); also called N-D1 long; source: purified; expression and purification as described previously [13, 42, 44]

[8] = target: T8, N-D1 fragment of p97 R155H, long form (^ND1p97^mt, residues 1-480) (UniProt P55072 1-480, R155H); assay: as above
T8 construct: p97 (VCP), N-D1 fragment, residues 1-480, pathogenic mutation R155H; also called ND1p97 R155H; source: purified; expression and purification as described previously [13, 42, 44]

[9] = target: T9, ND1p97wt (N-D1 fragment of wild-type p97, residues 1-480) (UniProt P55072 1-480); assay: ITC; VIMPx titrated into p97; iTC200, 25 C; 50 mM Tris pH 8.0, 150 mM NaCl, 2 mM MgCl2, 5% glycerol; 2 mM ADP in both samples; one-site model
T9 construct: p97 (valosin-containing protein, VCP), N-D1 long fragment, residues 1-480, wild type; also called N-D1 long; ND1p97 (residue 1-480)

[10] = target: T9, ND1p97wt (N-D1 fragment of wild-type …); assay: ITC; VIMPx titrated into p97; iTC200, 25 C; 50 mM Tris pH 8.0, 150 mM NaCl, 2 mM MgCl2, 5% glycerol; 2 mM AMP-PNP in both samples; one-site model
[11] = target: T10, FLp97wt (full-length wild-type p97, residues 1-806) (UniProt P55072 1-806); assay: as above
T10 construct: p97 (valosin-containing protein, VCP), full length, residues 1-806, wild type; also called VCP; valosin-containing protein
T10 sequence (P55072 whole entry, the tested form may be a part): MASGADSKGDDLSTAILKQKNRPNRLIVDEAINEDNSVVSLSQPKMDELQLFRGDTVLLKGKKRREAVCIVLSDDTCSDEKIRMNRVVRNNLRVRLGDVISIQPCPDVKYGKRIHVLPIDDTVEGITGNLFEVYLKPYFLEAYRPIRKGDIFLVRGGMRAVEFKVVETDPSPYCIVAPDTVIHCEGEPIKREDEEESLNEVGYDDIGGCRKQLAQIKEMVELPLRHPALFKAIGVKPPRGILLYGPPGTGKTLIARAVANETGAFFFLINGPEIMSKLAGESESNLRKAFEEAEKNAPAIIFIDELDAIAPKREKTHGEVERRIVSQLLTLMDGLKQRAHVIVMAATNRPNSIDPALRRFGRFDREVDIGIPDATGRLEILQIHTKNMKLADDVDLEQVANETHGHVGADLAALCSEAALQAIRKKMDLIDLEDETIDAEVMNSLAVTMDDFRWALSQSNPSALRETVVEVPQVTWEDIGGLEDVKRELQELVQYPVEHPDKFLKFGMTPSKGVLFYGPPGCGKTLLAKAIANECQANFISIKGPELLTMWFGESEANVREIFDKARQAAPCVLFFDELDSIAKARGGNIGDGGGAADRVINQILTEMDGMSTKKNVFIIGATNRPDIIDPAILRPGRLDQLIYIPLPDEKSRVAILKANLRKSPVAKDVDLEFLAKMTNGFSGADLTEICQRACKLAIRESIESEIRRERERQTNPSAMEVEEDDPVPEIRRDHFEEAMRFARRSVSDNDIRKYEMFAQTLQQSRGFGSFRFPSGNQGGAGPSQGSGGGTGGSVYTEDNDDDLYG

T9 sequence (P55072 1-480): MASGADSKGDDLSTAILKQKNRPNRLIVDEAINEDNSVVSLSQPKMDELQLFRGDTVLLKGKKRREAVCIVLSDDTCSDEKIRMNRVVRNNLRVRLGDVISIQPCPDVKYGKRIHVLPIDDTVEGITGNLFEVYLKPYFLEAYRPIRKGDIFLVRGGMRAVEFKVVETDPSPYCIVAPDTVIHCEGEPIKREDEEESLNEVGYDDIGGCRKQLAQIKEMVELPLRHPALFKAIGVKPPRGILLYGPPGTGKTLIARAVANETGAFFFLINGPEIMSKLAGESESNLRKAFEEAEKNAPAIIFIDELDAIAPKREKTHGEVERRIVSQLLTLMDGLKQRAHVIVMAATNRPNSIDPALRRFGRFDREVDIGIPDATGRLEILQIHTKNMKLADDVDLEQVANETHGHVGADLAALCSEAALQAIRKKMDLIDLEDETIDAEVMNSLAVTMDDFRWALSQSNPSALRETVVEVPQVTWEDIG
T1 sequence (P55072 whole entry, the tested form may be a part): as the sequence (P55072 whole entry, the tested form may be a part) above
T5 sequence (P55072 1-480 A232E): as the sequence (P55072 1-480) above, with A232E counted along it
T6 sequence (P55072 whole entry L198W, the tested form may be a part): as the sequence (P55072 whole entry, the tested form may be a part) above, with L198W counted along it
T3 sequence (P55072 1-480 L198W): as the sequence (P55072 1-480) above, with L198W counted along it
T8 sequence (P55072 1-480 R155H): as the sequence (P55072 1-480) above, with R155H counted along it
T4 sequence (P55072 whole entry R155H, the tested form may be a part): as the sequence (P55072 whole entry, the tested form may be a part) above, with R155H counted along it
T7 sequence (P55072 1-480): as the sequence (P55072 1-480) above
T2 sequence (P55072 whole entry A232E, the tested form may be a part): as the sequence (P55072 whole entry, the tested form may be a part) above, with A232E counted along it

B1: GST-VIMP minimal fragment (A69-E108) (domain or fragment, UniProt Q9BQE4 69-108, looked up)
chain: AVEPDVVVKRQEALAAARLKMQEELNAQVEKHKEKLKQLE
notes: VIMP (selenoprotein S), 40 residues A69-E108; source: held on glutathione resin
[1]
  binding result: binds

B2: GST-tagged cytosolic segment of VIMP (GST-VIMPc, residues 49-187) (domain or fragment, UniProt Q9BQE4 49-187, looked up)
chain: QKLSARLRALRQRQLDRAAAAVEPDVVVKRQEALAAARLKMQEELNAQVEKHKEKLKQLEEEKRRQKIEMWDSMQEGKSYKGNAKKPQEEDSPGPSTSSVLKRKSDRKPLRGGGYNPLSGEGGGACSWRPGRRGPSSGG
notes: source: held on glutathione resin
[1]
  binding result: binds
[2]
  binding result: binds
[3]
  binding result: binds
[4]
  binding result: binds
[5]
  binding result: binds
[6]
  binding result: binds
[7]
  binding result: binds
[8]
  binding result: binds

B3: VIMPx (VCP-interacting membrane protein, residues 49-122) (domain or fragment, UniProt Q9BQE4 49-122, looked up)
chain: QKLSARLRALRQRQLDRAAAAVEPDVVVKRQEALAAARLKMQEELNAQVEKHKEKLKQLEEEKRRQKIEMWDSM
notes: VIMP (selenoprotein S), fragment of the cytosolic segment, residues 49-122 (stop codon after M122); also called His-VIMPx; selenoprotein S; source: E. coli BL21(DE3), purified (Ni-NTA, Superdex 75)
[9]
  Kd: 6.21 ± 0.85 µM
  stoichiometry N: 1.13 ± 0.06
[10]
  Kd: 5.52 ± 0.26 µM
  stoichiometry N: 0.98 ± 0.05
[11]
  Kd: 7 ± 0.13 µM
  stoichiometry N: 0.66 ± 0.08
